Source: PMC10920880, “RNA compaction and iterative scanning for small RNA targets by the Hfq chaperone”
Positions count from the first letter of the chain named.

Columns and labels:
Hfq [1] = target: T1, Hfq (Escherichia coli K12, UniProt P0A6X3 1-102); test: smFRET; 5 nM sRNA (N13)-Hfq; rates 0.05 s-1 (49%) and 0.01 s-1; lifetime >~112 s; smFRET: 10 mM Tris-HCl pH 7.5, 50 mM NaCl, 50 mM KCl, 4 mM Trolox, 0.01% Nikkol, 0.8% glucose, RNasin, oxygen scavenger; EMSA: 1x TNK, 5% glycerol, 15 min RT, native 8% PAGE 1x TBE 4 C; settings: protein: recombinant; tags: none (untagged); chain copies: 6; label: tether 5' biotin, 3' Cy5; RNA 3' extension paired to DNA tether; 5' hairpin
Hfq [2] = target: T1, Hfq; test: smFRET; sRNA (N13)-Hfq; prefers S6 site; smFRET: 10 mM Tris-HCl pH 7.5, 50 mM NaCl, 50 mM KCl, 4 mM Trolox, 0.01% Nikkol, 0.8% glucose, RNasin, oxygen scavenger; EMSA: 1x TNK, 5% glycerol, 15 min RT, native 8% PAGE 1x TBE 4 C; settings: protein: recombinant; tags: none (untagged); chain copies: 6; label: tether 5' biotin, 3' Cy5; RNA 3' extension paired to DNA tether; 5' hairpin
Hfq [3] = target: T1, Hfq; test: smFRET; sRNA (N13)-Hfq; 57% dynamic; smFRET: 10 mM Tris-HCl pH 7.5, 50 mM NaCl, 50 mM KCl, 4 mM Trolox, 0.01% Nikkol, 0.8% glucose, RNasin, oxygen scavenger; EMSA: 1x TNK, 5% glycerol, 15 min RT, native 8% PAGE 1x TBE 4 C; settings: protein: recombinant; tags: none (untagged); chain copies: 6; label: tether 5' biotin, 3' Cy5; RNA 3' extension paired to DNA tether; 5' hairpin; spacer stem-loop
Hfq [4] = target: T1, Hfq; test: smFRET; sRNA (N13)-Hfq; lifetime similar to (AAC)4; smFRET: 10 mM Tris-HCl pH 7.5, 50 mM NaCl, 50 mM KCl, 4 mM Trolox, 0.01% Nikkol, 0.8% glucose, RNasin, oxygen scavenger; EMSA: 1x TNK, 5% glycerol, 15 min RT, native 8% PAGE 1x TBE 4 C; settings: protein: recombinant; tags: none (untagged); chain copies: 6; label: tether 5' biotin, 3' Cy5; RNA 3' extension paired to DNA tether; 5' hairpin
Hfq [5] = target: T1, Hfq; test: smFRET; sRNA (N13)-Hfq; smFRET: 10 mM Tris-HCl pH 7.5, 50 mM NaCl, 50 mM KCl, 4 mM Trolox, 0.01% Nikkol, 0.8% glucose, RNasin, oxygen scavenger; EMSA: 1x TNK, 5% glycerol, 15 min RT, native 8% PAGE 1x TBE 4 C; settings: protein: recombinant; tags: none (untagged); chain copies: 6; label: tether 5' biotin, 3' Cy5; RNA 3' extension paired to DNA tether; 5' hairpin
Hfq [6] = target: T1, Hfq; test: smFRET; sRNA (N13)-Hfq; 23% dynamic; smFRET: 10 mM Tris-HCl pH 7.5, 50 mM NaCl, 50 mM KCl, 4 mM Trolox, 0.01% Nikkol, 0.8% glucose, RNasin, oxygen scavenger; EMSA: 1x TNK, 5% glycerol, 15 min RT, native 8% PAGE 1x TBE 4 C; settings: protein: recombinant; tags: none (untagged); chain copies: 6; label: tether 5' biotin, 3' Cy5; RNA 3' extension paired to DNA tether; 5' hairpin
Hfq [7] = target: T1, Hfq; test: smFRET; sRNA (N13)-Hfq; 39% dynamic; smFRET: 10 mM Tris-HCl pH 7.5, 50 mM NaCl, 50 mM KCl, 4 mM Trolox, 0.01% Nikkol, 0.8% glucose, RNasin, oxygen scavenger; EMSA: 1x TNK, 5% glycerol, 15 min RT, native 8% PAGE 1x TBE 4 C; settings: protein: recombinant; tags: none (untagged); chain copies: 6; label: tether 5' biotin, 3' Cy5; RNA 3' extension paired to DNA tether; 5' hairpin

B1: (AAC)4-N0-S6 mRNA on DNA tether (mixed)
RNA: GGACUCUAUCGAGUCCAACAACAACAACGACCUCGCGCCCAGGACGACACACUUUGGACAGGACACACAGGACACAGG
DNA: CCTGTGTCCTGTGTGTCCTGTCCAAAGTGTGTCGTCC
B1: binds (Hfq [1]).

B2: (AAC)4-S6-N15-S4 tandem mRNA on DNA tether (mixed)
RNA: GGACUCUAUCGAGUCCAACAACAACAACCGACCUCUCUACCAUCACCACUCCUCGCGCCCAGGACGACACACUUUGGACAGGACACACAGGACACAGG
DNA: B1 DNA
B2: binds (Hfq [2]).

B3: (AAC)4-S6-N13-S6_SL tandem mRNA on DNA tether (mixed)
RNA: GGACUCUAUCGAGUCCAACAACAACAACAGACCUCUCUACCAUCACCGCAGCAUACUGCUGCAGACCUCGCGCCCAGGACGACACACUUUGGACAGGACACACAGGACACAGG
DNA: B1 DNA
B3: binds (Hfq [3]).

B4: (AAC)6-N35-S6 mRNA on DNA tether (mixed)
RNA: GGACUCUAUCGAGUCCAACAACAACAACAACAACCCCUGCAUCACCUAAACUUUACUCUACCAUCACCAGACCUCGCGCCCAGGACGACACACUUUGGACAGGACACACAGGACACAGG
DNA: B1 DNA
B4: binds (Hfq [4]).

B5: (AAC)4-S4-N13-S6 tandem mRNA on DNA tether (mixed)
RNA: B2 RNA with C29A, G30C, A31U, A48C, C49G, U50A
DNA: B1 DNA
B5: binds (Hfq [2]).

B6: (AAC)4-N35-S6 mRNA on DNA tether (mixed)
RNA: GGACUCUAUCGAGUCCAACAACAACAACUCUACCAUCACCUAAACUUUACUCUACCAUCACCAGACCUCGCGCCCAGGACGACACACUUUGGACAGGACACACAGGACACAGG
DNA: B1 DNA
B6: binds (Hfq [5]).

B7: (AAC)4-S6-N35-S6 tandem mRNA on DNA tether (mixed)
RNA: GGACUCUAUCGAGUCCAACAACAACAACAGACCUCUCUACCAUCACCUAAACUUUACUCUACCAUCACCAGACCUCGCGCCCAGGACGACACACUUUGGACAGGACACACAGGACACAGG
DNA: B1 DNA
B7: binds (Hfq [6]).

B8: (AAC)4-S6-N13-S6 tandem mRNA on DNA tether (mixed)
RNA: B2 RNA with C29A, C49G, U50A
DNA: B1 DNA
B8: binds (Hfq [7]).

B9: (AAC)4-N15-S6 mRNA on DNA tether (mixed)
RNA: GGACUCUAUCGAGUCCAACAACAACAACUCUACCAUCACCUAAGACCUCGCGCCCAGGACGACACACUUUGGACAGGACACACAGGACACAGG
DNA: B1 DNA
B9: binds (Hfq [5]).
